CN114702578A (BAISI MEDICAL DIAGNOSTICS TECH BEIJING CO LTD, dated 2022)

Target: T1, 新型冠状病毒野生型Spike RBD蛋白 (新型冠状病毒野生型 (SARS-CoV-2 wild type), UniProt P0DTC2 319-537)
T1 construct: domain: Spike RBD
Assay: ELISA binding experiment (Fig. 3)

B1: 克隆号为3A7C12的抗体 (antibody, V domains shown)
VH: EVQLVESGGGLVKPGGSLRLSCAASGFTFSSYSMNWVRQAPGKGLEWVSSISSGSSYIYFADSVKGRFTISRDNAKNSLFLQMNSLRAEDTATYYCARAPLGYDSSGYFTMYYFDYWGQGTLVTVSS
VL: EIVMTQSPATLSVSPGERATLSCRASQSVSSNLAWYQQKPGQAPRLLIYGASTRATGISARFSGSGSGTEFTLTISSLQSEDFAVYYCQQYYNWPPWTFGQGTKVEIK
notes: also called 3A7C12克隆号抗体
- binding result: no binding
